The values that follow are results of earlier work, collected in article PMC8403128.

A word on the pKd: it is the negative decadic logarithm of the Kd, by convention in mol/L.

pKd: −log10 of the molar value. Like-named read-outs stand apart in the source and are kept apart here.

For data set [1], the target named is Low-density lipoprotein receptor-related protein 1 (Homo sapiens) (UniProt Q07954).
Data set [2] shares this target. The source holds these as a separate data set.

Chain of UniProt Q07954 (Q07954 4441-4544): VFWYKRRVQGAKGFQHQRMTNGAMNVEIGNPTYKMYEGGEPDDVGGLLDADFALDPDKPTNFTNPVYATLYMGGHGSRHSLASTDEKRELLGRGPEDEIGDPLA

Regarding “Matrix metalloproteinase-1 (from UniProt P03956)”, the pKd in data set [1] is < 6.00.

Regarding “Matrix metalloproteinase-3 (from UniProt P08254)”, the pKd in data set [2] was < 6.00.
